Experimental data published in the supplement of paper PMC9112550, “Optimization of the antimicrobial peptide Bac7 by deep mutational scanning” (BMC Biology, 2022).

Test system: Escherichia coli TOP10
Assay: shrunken log2 fold change of peptide-encoding DNA abundance (4.5 h post-induction vs induction); higher = less antimicrobial activity (less host growth inhibition)
Conditions: time post-induction: 4.5 h; library: site-saturation at positions 5, 18, 19, 20
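Further: peptides expressed intracellularly from a pBAD plasmid library in pooled LB shake-flask culture, induced with 0.3% L-arabinose, DNA abundance read by NGS, three biological replicates, DESeq2 with apeglm shrinkage.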

RRIRSRPPRLPRPRPRPANDPRP
shrunken log2 fold change: 0.0254

RRIRSRPPRLPRPRPRPANHPRP
shrunken log2 fold change: -0.606

RRIRSRPPRLPRPRPRPANSPRP
shrunken log2 fold change: -0.564

RRIRSRPPRLPRPRPRPAPDPRP
shrunken log2 fold change: 0.369

RRIRSRPPRLPRPRPRPAPYPRP
shrunken log2 fold change: 0.265

RRIRSRPPRLPRPRPRPASAPRP
shrunken log2 fold change: 0.243

RRIRSRPPRLPRPRPRPATAPRP
shrunken log2 fold change: 0.322

RRIRSRPPRLPRPRPRPATEPRP
shrunken log2 fold change: 0.121

RRIRSRPPRLPRPRPRPATGPRP
shrunken log2 fold change: 0.156

RRIRSRPPRLPRPRPRPATWPRP
shrunken log2 fold change: -0.136

RRIRSRPPRLPRPRPRPAWWPRP
shrunken log2 fold change: 0.23

RRIRSRPPRLPRPRPRPCAIPRP
shrunken log2 fold change: -0.475

RRIRSRPPRLPRPRPRPCCRPRP
shrunken log2 fold change: -0.0822

RRIRSRPPRLPRPRPRPCDLPRP
shrunken log2 fold change: -0.144

RRIRSRPPRLPRPRPRPCEMPRP
shrunken log2 fold change: 0.0253

RRIRSRPPRLPRPRPRPCGHPRP
shrunken log2 fold change: 0.0213

RRIRSRPPRLPRPRPRPCIPPRP
shrunken log2 fold change: -0.417

RRIRSRPPRLPRPRPRPCKHPRP
shrunken log2 fold change: -0.216

RRIRSRPPRLPRPRPRPCKIPRP
shrunken log2 fold change: -0.177

RRIRSRPPRLPRPRPRPCKNPRP
shrunken log2 fold change: -0.283

RRIRSRPPRLPRPRPRPCPCPRP
shrunken log2 fold change: -0.138

RRIRSRPPRLPRPRPRPCQCPRP
shrunken log2 fold change: 0.017

RRIRSRPPRLPRPRPRPCQMPRP
shrunken log2 fold change: 0.0312

RRIRSRPPRLPRPRPRPCQTPRP
shrunken log2 fold change: 0.131

RRIRSRPPRLPRPRPRPCSPPRP
shrunken log2 fold change: 0.149

RRIRSRPPRLPRPRPRPCTVPRP
shrunken log2 fold change: -0.253

RRIRSRPPRLPRPRPRPCWEPRP
shrunken log2 fold change: 0.311

RRIRSRPPRLPRPRPRPCWKPRP
shrunken log2 fold change: -0.169

RRIRSRPPRLPRPRPRPDAYPRP
shrunken log2 fold change: 0.101

RRIRSRPPRLPRPRPRPDCEPRP
shrunken log2 fold change: 0.259

RRIRSRPPRLPRPRPRPDFHPRP
shrunken log2 fold change: -0.751

RRIRSRPPRLPRPRPRPDHDPRP
shrunken log2 fold change: -0.357

RRIRSRPPRLPRPRPRPDHSPRP
shrunken log2 fold change: -0.096

RRIRSRPPRLPRPRPRPDHVPRP
shrunken log2 fold change: -0.0207

RRIRSRPPRLPRPRPRPDKRPRP
shrunken log2 fold change: -0.198

RRIRSRPPRLPRPRPRPDMIPRP
shrunken log2 fold change: -0.00286

RRIRSRPPRLPRPRPRPDPRPRP
shrunken log2 fold change: 0.215

RRIRSRPPRLPRPRPRPDQPPRP
shrunken log2 fold change: 0.0272

RRIRSRPPRLPRPRPRPDQVPRP
shrunken log2 fold change: -0.0236

RRIRSRPPRLPRPRPRPDQYPRP
shrunken log2 fold change: -2.18

RRIRSRPPRLPRPRPRPDRYPRP
shrunken log2 fold change: -0.172

RRIRSRPPRLPRPRPRPDSVPRP
shrunken log2 fold change: 0.107

RRIRSRPPRLPRPRPRPDTGPRP
shrunken log2 fold change: -0.00127

RRIRSRPPRLPRPRPRPDTVPRP
shrunken log2 fold change: -0.323

RRIRSRPPRLPRPRPRPDVAPRP
shrunken log2 fold change: 0.407

RRIRSRPPRLPRPRPRPDVGPRP
shrunken log2 fold change: 0.102

RRIRSRPPRLPRPRPRPDWKPRP
shrunken log2 fold change: -0.0322

RRIRSRPPRLPRPRPRPDWNPRP
shrunken log2 fold change: -0.298

RRIRSRPPRLPRPRPRPECVPRP
shrunken log2 fold change: 0.673

RRIRSRPPRLPRPRPRPEDDPRP
shrunken log2 fold change: 0.744

RRIRSRPPRLPRPRPRPEDEPRP
shrunken log2 fold change: -0.0488

RRIRSRPPRLPRPRPRPEELPRP
shrunken log2 fold change: 0.176

RRIRSRPPRLPRPRPRPEEMPRP
shrunken log2 fold change: -0.0122

RRIRSRPPRLPRPRPRPEFTPRP
shrunken log2 fold change: 0.171

RRIRSRPPRLPRPRPRPEIRPRP
shrunken log2 fold change: -0.0706

RRIRSRPPRLPRPRPRPEITPRP
shrunken log2 fold change: -0.13

RRIRSRPPRLPRPRPRPEKLPRP
shrunken log2 fold change: -0.264

RRIRSRPPRLPRPRPRPELYPRP
shrunken log2 fold change: -0.00809

RRIRSRPPRLPRPRPRPEMFPRP
shrunken log2 fold change: -0.0055

RRIRSRPPRLPRPRPRPEQMPRP
shrunken log2 fold change: -0.0112

RRIRSRPPRLPRPRPRPEQQPRP
shrunken log2 fold change: 0.0303

RRIRSRPPRLPRPRPRPEQYPRP
shrunken log2 fold change: -0.256

RRIRSRPPRLPRPRPRPEREPRP
shrunken log2 fold change: -0.0693

RRIRSRPPRLPRPRPRPERFPRP
shrunken log2 fold change: 0.196

RRIRSRPPRLPRPRPRPERVPRP
shrunken log2 fold change: 0.21

RRIRSRPPRLPRPRPRPEVKPRP
shrunken log2 fold change: 0.287

RRIRSRPPRLPRPRPRPEVSPRP
shrunken log2 fold change: 0.214

RRIRSRPPRLPRPRPRPFAHPRP
shrunken log2 fold change: 0.0573

RRIRSRPPRLPRPRPRPFARPRP
shrunken log2 fold change: -0.172

RRIRSRPPRLPRPRPRPFCRPRP
shrunken log2 fold change: -0.0968

RRIRSRPPRLPRPRPRPFCTPRP
shrunken log2 fold change: -0.375

RRIRSRPPRLPRPRPRPFDIPRP
shrunken log2 fold change: -0.639

RRIRSRPPRLPRPRPRPFDWPRP
shrunken log2 fold change: -0.0461

RRIRSRPPRLPRPRPRPFEPPRP
shrunken log2 fold change: -0.268

RRIRSRPPRLPRPRPRPFFCPRP
shrunken log2 fold change: -0.11

RRIRSRPPRLPRPRPRPFFHPRP
shrunken log2 fold change: -0.498

RRIRSRPPRLPRPRPRPFGGPRP
shrunken log2 fold change: -0.0941

RRIRSRPPRLPRPRPRPFGIPRP
shrunken log2 fold change: -0.172

RRIRSRPPRLPRPRPRPFHAPRP
shrunken log2 fold change: 0.042

RRIRSRPPRLPRPRPRPFINPRP
shrunken log2 fold change: -0.639

RRIRSRPPRLPRPRPRPFIRPRP
shrunken log2 fold change: -0.412

RRIRSRPPRLPRPRPRPFKCPRP
shrunken log2 fold change: -0.226

RRIRSRPPRLPRPRPRPFKRPRP
shrunken log2 fold change: -0.013

RRIRSRPPRLPRPRPRPFLFPRP
shrunken log2 fold change: -0.329

RRIRSRPPRLPRPRPRPFMRPRP
shrunken log2 fold change: 0.0496

RRIRSRPPRLPRPRPRPFNFPRP
shrunken log2 fold change: -0.112

RRIRSRPPRLPRPRPRPFNHPRP
shrunken log2 fold change: -1.19

RRIRSRPPRLPRPRPRPFPHPRP
shrunken log2 fold change: -0.16

RRIRSRPPRLPRPRPRPFPMPRP
shrunken log2 fold change: -0.264

RRIRSRPPRLPRPRPRPFPTPRP
shrunken log2 fold change: -0.101

RRIRSRPPRLPRPRPRPFQPPRP
shrunken log2 fold change: -0.133

RRIRSRPPRLPRPRPRPFVHPRP
shrunken log2 fold change: -0.291

RRIRSRPPRLPRPRPRPFVSPRP
shrunken log2 fold change: -0.481

RRIRSRPPRLPRPRPRPFWAPRP
shrunken log2 fold change: -0.00411

RRIRSRPPRLPRPRPRPFYAPRP
shrunken log2 fold change: -0.236

RRIRSRPPRLPRPRPRPGCFPRP
shrunken log2 fold change: 0.225

RRIRSRPPRLPRPRPRPGCSPRP
shrunken log2 fold change: -0.115

RRIRSRPPRLPRPRPRPGDIPRP
shrunken log2 fold change: -0.198

RRIRSRPPRLPRPRPRPGEFPRP
shrunken log2 fold change: -0.181

RRIRSRPPRLPRPRPRPGERPRP
shrunken log2 fold change: 0.637

RRIRSRPPRLPRPRPRPGFFPRP
shrunken log2 fold change: 0.176

RRIRSRPPRLPRPRPRPGGFPRP
shrunken log2 fold change: 0.245

RRIRSRPPRLPRPRPRPGIKPRP
shrunken log2 fold change: -0.0207

RRIRSRPPRLPRPRPRPGKFPRP
shrunken log2 fold change: -0.111

RRIRSRPPRLPRPRPRPGKGPRP
shrunken log2 fold change: -0.0961

RRIRSRPPRLPRPRPRPGNEPRP
shrunken log2 fold change: -0.183

RRIRSRPPRLPRPRPRPGSWPRP
shrunken log2 fold change: 0.605

RRIRSRPPRLPRPRPRPGTCPRP
shrunken log2 fold change: 0.148

RRIRSRPPRLPRPRPRPGTFPRP
shrunken log2 fold change: 0.0493
